{"source": "the RNAGym collection of RNA variant scans (doi:10.1073/pnas.2313332121)", "parents": {"B1": {"name": "TPR 5TU (parent)", "chain": "GGAUCUUCUCGAUCUAACAAAAAAGACAAAUCUGCCACAAAGCUUGAGAGCAUCUUCGGAUGCAGAGGCGGCAGCCUUCGGUGGCGCGAUAGCGCCAACGUUCUCAACUAUGACACGCAAAACGCGUGCUCCGUUGAAUGGAGUUUAUCAUG"}}, "note": "Fewer inactive variants are shown than the library holds."}
{"variants_of": "B1", "test": "polymerase ribozyme fitness, log enrichment relative to wild type (log ratio); higher = more active; in vitro selection for triplet polymerase activity", "in_short": "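In triplicate, a single round of in vitro selection was run on each mutant library, PCR-built and transcribed, covering one subunit of a heterodimeric triplet polymerase ribozyme. Frozen incubation at −7 °C followed annealing with a biotinylated primer, partner subunit and triplets, and extended constructs were then gel-excised, streptavidin-captured and taken through RT-PCR. Fitness is the logarithm of genotype enrichment over wild-type enrichment, from inverse-variance-weighted replicate averages of Illumina-sequenced inputs and outputs. […] only genotypes with ≥10 input reads and ≥1 read per output were kept.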"}
{"variant": "GGAUCUUCUCGAUCUAACAAAAAAUACAAAUCUGCCACAAAGCUUGAGAGCAUCUUCGGAGGCAGCGGCGGCAGCCUUCGGUGGCGUGAUAGCGCCAACGUUCUCAACUAUGACACGCAAAACGCGUGCUCCGUUGGAUGGAGUUUAUCAUG", "polymerase ribozyme fitness (log ratio)": "≤ -4.2"}
{"variant": "GGAUCUUCUCUAUCUAACAAAAAAGACAAAUCUGCCACAAAGCUUGAGAGCAUCUUCGGAUGCAGAGGCGGCAGCCUUCGGUGGCGCGAUAGGGCCAACGUUCUCAACUAUGACACGCAAAACGCGUGCUCCGUUGAAUGGAGUUUAUCAUG", "polymerase ribozyme fitness (log ratio)": -3.88}
{"variant": "GGAUCUUCUCGAUCUACCAAAAAAGACAAAUCUGCCACAAAGCUUGAGAGCAUCUUCGGAUGCAGAGACGGCAGCCUUCGGUAGCGCGAUAGCGCCAACGUUCUCAACUAUGACAAGCAAAACGCGUACUCCGUUGAAUGGAGUUUAUCAUG", "polymerase ribozyme fitness (log ratio)": "≤ -4.2"}
{"variant": "GGAGCUUCUCGAUCUAACAAAAAAGACAAAUCUGCCACAAAGCUUGAGAGCAUCUUCGGAUGCAGAGGCGGCAGCCUUCGGUGGCGCGAUAGCGCCGACGUUGUCAACUAUGACACGCAAAACGCGUGCUCCGUUGAAUGGAGUUUAUCAUG", "polymerase ribozyme fitness (log ratio)": -3.15}
{"variant": "GGAUCUUCUCGAUCUAACAAAAAAGACAAAUCUGCCACAAAGCUUGAGAGCGUCUUCGGAUGCAGAGGCGGCAGCCUUCGGUGGCGCGAUAGCGCCAACUUUCUCAACUAUGACACGCAAAACGCGUGCUCCGUUGAAUGGAGUUUAUCAUG", "polymerase ribozyme fitness (log ratio)": -3.98}
{"variant": "GGAUCUUCUCGAUCUAACAAAAAAGACUAAUCUGCCACAAAGCUUGAGAGCAUCUUCGGAUGCAGAGGCGGCAGCCUUCGGUGGCGCAAUAGCACCAAGGUUGACAGCUAUGACACGCAAAACGCGUGCUCCGUUGAAUGGAGUUUAUCAUG", "polymerase ribozyme fitness (log ratio)": "≤ -4.2"}
{"variant": "GGAUCUUCUGGAUCUAACAAAAAAGACAAAUCUGCCACAAAGCUUGAGAGCAUCUUCGGAUGCAGAGGCGGCAGCAUUCGGUAGCGCGAUUGCGCCAACGUUCUCCAAUAUGACACGCAAAACGCGUGCACCGUUGAAUGGAGUUUAUCAUG", "polymerase ribozyme fitness (log ratio)": "≤ -4.2"}
{"variant": "GGAUCUUCUCGAUCUAACAAAAAAGACAAAUCUGCCACAAAGCUUGAGAGCAUCGUCGAAUGCAGAGGCGGCAGCCUUCGGUGGCGCGAUAGCGCCAACGUUCUCAACUAUGACACGCAAAACGCGUGCUCCGUUGAAUGGAGUUUAUCAUG", "polymerase ribozyme fitness (log ratio)": -2.25}
{"variant": "GGAUCUUCUCGAUGUAACAAAAAAGGCAAAUCUGCCACAAAGCUUGAGAGCAUCUGCGGAUGCAGAGGCGGCUGCCUUCGGUGGCGCGAUAGCGCCAACGUUCUCAACUAUGACACGCAAAACGCGUGCUCCGUUGAAUGGAAUUUAUCAUG", "polymerase ribozyme fitness (log ratio)": "≤ -4.2"}
{"variant": "GGAUCUUCUCGAUCUAACAAAAAAGACAAAUCUGCCACAAAGCUUGAGAGCAUCUUCGGAUGCAGAGGCGGCAGCCUUCGGUGGAGCGAUAGCGCCAACGUUCUCAACUAUGACACGCAAAACGCGUGCUCCGUUGAAUGGUGUUUAUCAUG", "polymerase ribozyme fitness (log ratio)": -1.59}
{"variant": "GGAUCUUCUCGAUCUAACAAAAAAGACAAAUCUGCCACAAAGCUUGAGCGCAUCUUCGGAUGCAGAGGCGGCAGCCUUCGGUGGCGCGAUAGCGCCAACGUUCUCAACUAUGACUCGCAAAACGCGUGCUCCGUUGAAUGGAGUUUAUCAUG", "polymerase ribozyme fitness (log ratio)": "≤ -4.2"}
{"variant": "GGAUAUUCCCGAUCUAACAAAAAAGACAAAUCUGCCACAAAGCUUGAGAGCAUCUUCGGAUGCAGAGGCGGCAGCCUUCGGUGGAGCGAUAGCGCCAACGUUCUCAACUAUGACACGCAAAACGCGUGCUCCGUUGAAUGGAGUUUAUCAUG", "polymerase ribozyme fitness (log ratio)": -2.68}
{"variant": "GGAUAUUCUCGAUCUAACAAAAAAGUCAAAUCUGGCACUAAGCUUGAGAGCAUCUUCGGAUGCAGAGGCGGCAGCUUUCGGUGGUGCGAUAGCGCCAACGUUCUCAACUAUGACACGUCAAACGCGUGCUCCGUUGAAUGGAGUUUAUCAUG", "polymerase ribozyme fitness (log ratio)": -4.09}
{"variant": "GGAUCUUCUCGAUCUAACAAAAAAGACAAAUCUGCCACAAAGCUUGAGAGUAUCUUCGGAUGCAGAGGCGGCAGCCUUCGGUGGCGCGAUAGCGCCAACGUUCUCAACUAUGACACGCAAAACGCGUGCUCCGUUGAAUUGAGUUUAUCAUG", "polymerase ribozyme fitness (log ratio)": -2.55}
{"variant": "GGAUCUUCUCGAUCUAACCAAAAAGACAAAUCUGCCACAAAGCUUGAGAGCAGCUUCGGAUGCAGAGGCGGCAGCCUUCGGUGGUGCGAUAACGCCAACGUUAUCAACUAUGACACGCAAAACGCGUGCUCCGUUGAAUGCAGUUUAUCAUG", "polymerase ribozyme fitness (log ratio)": "≤ -4.2"}
{"variant": "GGACCUUCUCGAUCUAACAAAAAAGACAAAUCUGCCACAAAGCUUGAGAGCGUCUUCUGAUGCAGAGGCGGCAGCCUUCGGUGGCGCGAUAGCGCCAACGUUCUCAACUAUGACACGCAAAACGCGUGCUCCGUUGAAUGGAGUUUAUCAUG", "polymerase ribozyme fitness (log ratio)": -0.303}
{"variant": "GGAUCUUCUCGAUCUAACAAAAAAGACAAAUCUGCCACAAAGCUUGAGAGCAUCUUCGGAUGCAGAGGCGGCAGACUUCGGUGGCGAAAUAGCGCCAACGUUCUCAACUAUGACACGCAAAACGCGUGCUCCGUUGAAUGGAGUUUAUCAUG", "polymerase ribozyme fitness (log ratio)": "≤ -4.2"}
{"variant": "GGAUCUUCUCGAUCUAACAAAAAAGACAAAUCUGCCACAAAGCUUGAGAGCAUCUUCGGAUGCAGAGGCGGCAGCCUUCGGUGGCGCGAUAGCUCCAACGUCCUCAACUAUGACACGCAAAACGCGUGCUCCGUUGAAUGGAGUUUAUCAUG", "polymerase ribozyme fitness (log ratio)": -2.06}
{"variant": "GGAUCUUCUCGAUCUAACAAAAAAGACAAAUCUGCCACAAAGCUUGAGAGCAUCUUCGGAUACAGAGGCGGCAGCCUUCGGUGGCACGAUAGCGCCAACGUUCUCAACUAUGACACGCAAACCGCGUGCUCCGUUGAAUGGAGUUUAUCAUG", "polymerase ribozyme fitness (log ratio)": -1.02}
